In patent publication US20260297200 (published 2026):
Each block holds one binder with its values, some of them ahead of it.

How the values were obtained:
human EGFR on cells [1] = biological target: T1, human EGFR on cells (human, UniProt P00533); experiment: FACS, FaDu
human EGFR on cells [2] = biological target: T1, human EGFR on cells; experiment: FACS, SW620
human EGFR on cells [3] = biological target: T1, human EGFR on cells; experiment: FACS, LIM1215
human EGFR on cells [4] = biological target: T1, human EGFR on cells; experiment: FACS, HCT-116
EGFR-moIgG2a-Fc = EGFR-moIgG2a-Fc (human); experiment: ELISA
CD3 on Jurkat = CD3 on Jurkat (human, UniProt P07766); experiment: FACS, Jurkat
human EGFR on cells [5] = biological target: T1, human EGFR on cells; experiment: FACS, FaDu; remark: listed apart in the source
EGFR-His (human ECD) = EGFR-His (human ECD) (human); experiment: BLI

CD3 on Jurkat, sequence (P07766 23-207): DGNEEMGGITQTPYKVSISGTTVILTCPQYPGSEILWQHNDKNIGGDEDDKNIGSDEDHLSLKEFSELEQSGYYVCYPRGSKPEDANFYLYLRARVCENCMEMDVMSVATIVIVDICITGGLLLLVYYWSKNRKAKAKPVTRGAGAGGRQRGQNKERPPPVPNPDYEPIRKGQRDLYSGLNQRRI

B2: eIg 1+1 H10x4D5 EGFR arm (antibody)
chain 1: not shown
chain 2: QSVLTQPPSVSGAPGQRVTISCSGGSSNVGRNGVNWFQHLPEKAPKLLIYYDAFLSSGVSDRFSGSKSGTSASLAIRGLQSDDEADYYCAAWDDSLYSWVFGGGTNLTVLGQPKAAPSVTLFPPSSEELQANKATLVCLISDFYPGAVTVAWKADSSPVKAGVETTTPSKQSNNKYAASSYLSLTPEQWKSHRSYSCQVTHEGSTVEKTVAPTECS
EC50 (EGFR-moIgG2a-Fc): 6.2 nM

B3: Db3-43x3-43/FabH10-Fckih EGFR arm (antibody)
chain 1: not shown
chain 2: QSVLTQPPSVSGAPGQRVTISCSGGSSNVGRNGVNWFQHLPEKAPKLLIYYDAFLSSGVSDRFSGSKSGTSASLAIRGLQSDDEADYYCAAWDDSLYSWVFGGGTNLTVLGQPKAAPSVTLFPPSSEELQANKATLVCLISDFYPGAVTVAWKADSSPVKAGVETTTPSKQSNNKYAASSYLSLTPEQWKSHRSYSCQVTHEGSTVEKTVAPTECS
EC50 (EGFR-moIgG2a-Fc): 0.1 nM

B4: eIg 1+1 H10x3-43 EGFR arm (antibody)
chain 1: not shown
chain 2: QSVLTQPPSVSGAPGQRVTISCSGGSSNVGRNGVNWFQHLPEKAPKLLIYYDAFLSSGVSDRFSGSKSGTSASLAIRGLQSDDEADYYCAAWDDSLYSWVFGGGTNLTVLGQPKAAPSVTLFPPSSEELQANKATLVCLISDFYPGAVTVAWKADSSPVKAGVETTTPSKQSNNKYAASSYLSLTPEQWKSHRSYSCQVTHEGSTVEKTVAPTECS
EC50 (EGFR-moIgG2a-Fc): 0.5 nM

B5: Fab/scFv-Fc H10x3-43 EGFR arm (antibody)
chain 1: not shown
chain 2: QSVLTQPPSVSGAPGQRVTISCSGGSSNVGRNGVNWFQHLPEKAPKLLIYYDAFLSSGVSDRFSGSKSGTSASLAIRGLQSDDEADYYCAAWDDSLYSWVFGGGTNLTVLGQPKAAPSVTLFPPSSEELQANKATLVCLISDFYPGAVTVAWKADSSPVKAGVETTTPSKQSNNKYAASSYLSLTPEQWKSHRSYSCQVTHEGSTVEKTVAPTECS
EC50 (EGFR-moIgG2a-Fc): 0.3 nM

B6: eIg 1+1 H10x5D5 EGFR arm (antibody)
chain 1: not shown
chain 2: QSVLTQPPSVSGAPGQRVTISCSGGSSNVGRNGVNWFQHLPEKAPKLLIYYDAFLSSGVSDRFSGSKSGTSASLAIRGLQSDDEADYYCAAWDDSLYSWVFGGGTNLTVLGQPKAAPSVTLFPPSSEELQANKATLVCLISDFYPGAVTVAWKADSSPVKAGVETTTPSKQSNNKYAASSYLSLTPEQWKSHRSYSCQVTHEGSTVEKTVAPTECS
EC50 (EGFR-moIgG2a-Fc): 1.1 nM

B10: Fab-eIg YU250-H10xhuU3 CD3 arm (antibody, V domains shown)
VH: QVQLVQSGAEVKKPGSSVKVSCKASGGTFSGYTMNWVRQAPGQGLEWMGLINPYKGVSTYNGKFKDRVTITADKSTSTAYMELSSLRSEDTAVYYCARSGYYGDSDWYFDVWGQGTLVTVSS
VL: DIQMTQSPSSLSASVGDRVTITCRASQDIRNYLNWYQQKPGKAPKLLIYYTSRLHSGVPSRFSGSGSGTDFTFTISSLQPEDIATYYCQQGNTLPWTFGQGTKLEIKR
EC50 (CD3 on Jurkat): > 10 nM

B11: eIg MKU011-A7xhuU3 EGFR arm (antibody, V domains shown)
VH: QVQLVQSGGGVVQPGGSLRLSCAASGFTFSSYGMHWVRQAPGKGLEWVAFIRYDGSNKYYADSVKGRFTISRDNSKNTLYLQMNSLRAEDTAVYYCAKDGNSGYDSMDYWGQGTLVTVSS
VL: QPVLTQSPSASGTPGQRVTISCSGVSSNIGRNYVYWYQQFPGTAPKLLIYATHQRPSGVPDRFSGSKSGTSASLAISGLRSEDEANYYCAAWDDGVTGWVFGGGTKLTVLG
EC50 (human EGFR on cells [5]): 3.28 nM
EC50 (human EGFR on cells [2]): 0.74 nM
EC50 (human EGFR on cells [4]): 4.28 nM

B12: Db3-43xH10-Ig EGFR arm (antibody)
chain 1: QVQLVQSGGGVVQPGGSLRLSCAASGFTFSSYGMHWVRQAPGKGLEWVAFIRYDGSNKYYADSVKGRFTISRDNSKNTLYLQMNSLRAEDTAVYYCAKDGNSGYDSMDYWGQGTLVTVSS
chain 2: QSVLTQPPSVSGAPGQRVTISCSGGSSNVGRNGVNWFQHLPEKAPKLLIYYDAFLSSGVSDRFSGSKSGTSASLAIRGLQSDDEADYYCAAWDDSLYSWVFGGGTNLTVL
EC50 (EGFR-moIgG2a-Fc): 0.9 nM

B13: YU250-H10 Fab-His (antibody)
chain 1: QVQLVQSGGGVVQPGGSLRLSCAASGFTFSSYGMHWVRQAPGKGLEWVAFIRYDGSNKYYADSVKGRFTISRDNSKNTLYLQMNSLRAEDTAVYYCAKDGNSGYDSMDYWGQGTLVTVSS
chain 2: QSVLTQPPSVSGAPGQRVTISCSGGSSNVGRNGVNWFQHLPEKAPKLLIYYDAFLSSGVSDRFSGSKSGTSASLAIRGLQSDDEADYYCAAWDDSLYSWVFGGGTNLTVL
Kd (EGFR-His (human ECD)): 4.17 nM

B14: Fab-eIg YU250-H10xhuU3 EGFR arm (antibody)
chain 1: QVQLVQSGGGVVQPGGSLRLSCAASGFTFSSYGMHWVRQAPGKGLEWVAFIRYDGSNKYYADSVKGRFTISRDNSKNTLYLQMNSLRAEDTAVYYCAKDGNSGYDSMDYWGQGTLVTVSS
chain 2: QSVLTQPPSVSGAPGQRVTISCSGGSSNVGRNGVNWFQHLPEKAPKLLIYYDAFLSSGVSDRFSGSKSGTSASLAIRGLQSDDEADYYCAAWDDSLYSWVFGGGTNLTVL
EC50 (human EGFR on cells [1]): 0.76 nM
EC50 (human EGFR on cells [5]): 0.32 nM
EC50 (human EGFR on cells [2]): 0.03 nM
EC50 (human EGFR on cells [4]): 0.13 nM

B16: Fab-eIg MKU011-A7xhuU3 EGFR arm (antibody, V domains shown)
VH: QVQLVQSGGGVVQPGGSLRLSCAASGFTFSSYGMHWVRQAPGKGLEWVAFIRYDGSNKYYADSVKGRFTISRDNSKNTLYLQMNSLRAEDTAVYYCAKDGNSGYDSMDYWGQGTLVTVSS
VL: QPVLTQSPSASGTPGQRVTISCSGVSSNIGRNYVYWYQQFPGTAPKLLIYATHQRPSGVPDRFSGSKSGTSASLAISGLRSEDEANYYCAAWDDGVTGWVFGGGTKLTVL
EC50 (human EGFR on cells [5]): 0.4 nM
EC50 (human EGFR on cells [2]): 0.03 nM
EC50 (human EGFR on cells [4]): 0.16 nM

B17: YU250-A02 Fab-His (antibody, V domains shown)
VH: QVQLQESGGGVVQPGGSLRLSCAASGFTFSSYGMHWVRQAPGKGLEWVAFIRYDGSNKYYADSVKGRFTISRDNSKNTLYLQMNSLRAEDTAVYYCAKDGNSGYDSMDYWGQGTLVTVSS
VL: QSVLTQPPSVSGAPGQRVTISCSGGSSNVGRNGVNWFQHLPEKAPKLLIYYDAFLSSGVSDRFSGSKSGTSASLAIRGLQSEDEADYYCASWDDSLTGWVFGGGTKLTVL
Kd (EGFR-His (human ECD)): 12.9 nM

B19: Fab-eIg 2+2 H10x3-43 EGFR arm (antibody)
chain 1: QVQLVQSGGGVVQPGGSLRLSCAASGFTFSSYGMHWVRQAPGKGLEWVAFIRYDGSNKYYADSVKGRFTISRDNSKNTLYLQMNSLRAEDTAVYYCAKDGNSGYDSMDYWGQGTLVTVSS
chain 2: QSVLTQPPSVSGAPGQRVTISCSGGSSNVGRNGVNWFQHLPEKAPKLLIYYDAFLSSGVSDRFSGSKSGTSASLAIRGLQSDDEADYYCAAWDDSLYSWVFGGGTNLTVL
EC50 (EGFR-moIgG2a-Fc): 0.5 nM

B20: MKU011-A7 Fab-His (antibody, V domains shown)
VH: QVQLVQSGGGVVQPGGSLRLSCAASGFTFSSYGMHWVRQAPGKGLEWVAFIRYDGSNKYYADSVKGRFTISRDNSKNTLYLQMNSLRAEDTAVYYCAKDGNSGYDSMDYWGQGTLVTVSS
VL: QPVLTQSPSASGTPGQRVTISCSGVSSNIGRNYVYWYQQFPGTAPKLLIYATHQRPSGVPDRFSGSKSGTSASLAISGLRSEDEANYYCAAWDDGVTGWVFGGGTKLTVL
Kd (EGFR-His (human ECD)): 55.8 nM

Next, values leading:

EC50 (human EGFR on cells [1]): 2.17 nM
EC50 (human EGFR on cells [2]): 0.21 nM
EC50 (human EGFR on cells [3]): 0.85 nM
EC50 (human EGFR on cells [4]): 0.46 nM
B1: eIg YU250-H10xhuU3 EGFR arm (antibody)
chain 1: not shown
chain 2: QSVLTQPPSVSGAPGQRVTISCSGGSSNVGRNGVNWFQHLPEKAPKLLIYYDAFLSSGVSDRFSGSKSGTSASLAIRGLQSDDEADYYCAAWDDSLYSWVFGGGTNLTVLGQPKAAPSVTLFPPSSEELQANKATLVCLISDFYPGAVTVAWKADSSPVKAGVETTTPSKQSNNKYAASSYLSLTPEQWKSHRSYSCQVTHEGSTVEKTVAPTECS

EC50 (CD3 on Jurkat): > 10 nM
B7: scDb-scFv YU250-H10xhuU3 CD3 arm (antibody, V domains shown)
VH: QVQLVQSGAEVKKPGSSVKVSCKASGGTFSGYTMNWVRQAPGQGLEWMGLINPYKGVSTYNGKFKDRVTITADKSTSTAYMELSSLRSEDTAVYYCARSGYYGDSDWYFDVWGQGTLVTVSS
VL: DIQMTQSPSSLSASVGDRVTITCRASQDIRNYLNWYQQKPGKAPKLLIYYTSRLHSGVPSRFSGSGSGTDFTFTISSLQPEDIATYYCQQGNTLPWTFGQGTKLEIKR

EC50 (CD3 on Jurkat): > 10 nM
B8: eIg YU250-H10xhuU3 CD3 arm (antibody, V domains shown)
VH: QVQLVQSGAEVKKPGSSVKVSCKASGGTFSGYTMNWVRQAPGQGLEWMGLINPYKGVSTYNGKFKDRVTITADKSTSTAYMELSSLRSEDTAVYYCARSGYYGDSDWYFDVWGQGTLVTVSS
VL: DIQMTQSPSSLSASVGDRVTITCRASQDIRNYLNWYQQKPGKAPKLLIYYTSRLHSGVPSRFSGSGSGTDFTFTISSLQPEDIATYYCQQGNTLPWTFGQGTKLEIKR

EC50 (CD3 on Jurkat): 7.56 nM
B9: scDb YU250-H10xhuU3 CD3 arm (antibody, V domains shown)
VH: QVQLVQSGAEVKKPGSSVKVSCKASGGTFSGYTMNWVRQAPGQGLEWMGLINPYKGVSTYNGKFKDRVTITADKSTSTAYMELSSLRSEDTAVYYCARSGYYGDSDWYFDVWGQGTLVTVSS
VL: DIQMTQSPSSLSASVGDRVTITCRASQDIRNYLNWYQQKPGKAPKLLIYYTSRLHSGVPSRFSGSGSGTDFTFTISSLQPEDIATYYCQQGNTLPWTFGQGTKLEIKR

EC50 (human EGFR on cells [1]): 1.68 nM
EC50 (human EGFR on cells [3]): 1.02 nM
B15: scDb YU250-H10xhuU3 EGFR arm (antibody)
chain 1: QVQLVQSGGGVVQPGGSLRLSCAASGFTFSSYGMHWVRQAPGKGLEWVAFIRYDGSNKYYADSVKGRFTISRDNSKNTLYLQMNSLRAEDTAVYYCAKDGNSGYDSMDYWGQGTLVTVSS
chain 2: QSVLTQPPSVSGAPGQRVTISCSGGSSNVGRNGVNWFQHLPEKAPKLLIYYDAFLSSGVSDRFSGSKSGTSASLAIRGLQSDDEADYYCAAWDDSLYSWVFGGGTNLTVL

EC50 (human EGFR on cells [1]): 0.74 nM
EC50 (human EGFR on cells [3]): 0.31 nM
B18: scDb-scFv YU250-H10xhuU3 EGFR arm (antibody)
chain 1: QVQLVQSGGGVVQPGGSLRLSCAASGFTFSSYGMHWVRQAPGKGLEWVAFIRYDGSNKYYADSVKGRFTISRDNSKNTLYLQMNSLRAEDTAVYYCAKDGNSGYDSMDYWGQGTLVTVSS
chain 2: QSVLTQPPSVSGAPGQRVTISCSGGSSNVGRNGVNWFQHLPEKAPKLLIYYDAFLSSGVSDRFSGSKSGTSASLAIRGLQSDDEADYYCAAWDDSLYSWVFGGGTNLTVL
